Laboratory results as given in patent US9482669B2, “Crystal structure of the NanR and ManNAc-6P complex, and uses thereof” (priority 2013, dated 2016).

Assays:
[1] = system: nanTp-nanE intergenic region; assay: EMSA of NanR with nanTp-nanE intergenic region; type: binding, Vibrio vulnificus; settings: for DNA binding in EMSA: wild-type or mutant NanR
Description: (§1) Purified His-NanR protein was used to raise a primary polyclonal antibody by immunizing European rabbits (Oryctolagus curiculus). First, after one primary injection containing 500 μg of protein, three boosters containing 200 μg of protein was performed at 2-week intervals. Western blotting, EMSA and DNaseI footprinting assays were performed according to typical procedures known in the art.
NanR represses both nan T(PSL)AR and nanEK nagA operons by binding to an operator within the nanTp-nanE intergenic region. To examine the role of R57 and R60 residues in DNA binding, EMSA (electrophoretic gel mobility shift assays), in which the nanTp-nanE intergenic region was incubated with wild-type or mutant NanR in the absence or presence of ManNAc-6P, were performed.
The importance of K188 and K199 residues on all to binding of NanR to DNA was assessed by EMSA. […] Furthermore, the mutants were much more susceptible to ManNAc-6P than wild-type NanR (FIG. 10). […] The transcriptional control region of nan operon interacts with the dimer via the positively charged residues in this space (FIGS. 7b and 7c).

[2] = system: 32P-labeled transcriptional control region of nan operon; assay: DNaseI footprinting assay; type: binding, Vibrio vulnificus; settings: 400 nM NanR, 0.1 mM or 1 mM ManNAc-6P
Description: as §1
(§2) Therefore, the present inventors hypothesized that binding of ManNAc-6P may alter the conformation of NanR and alleviate its interaction with the transcriptional control region of nan operon. In detail, a DNaseI footprinting assay using NanR protein and ^32P-labeled transcriptional control region of nan operon was performed.

[3] = target: NanR-binding duplex DNA (transcriptional control region of nan operon); assay: Isothermal titration calorimetry of NanR with NanR-binding duplex DNA; set-up: species or system Vibrio vulnificus; settings: for Kd: ITC at 25° C., 0.48 mM protein titrated against 0.03 mM DNA, read-out: dissociation constant (Kd) for target DNA
Description: NanR-binding duplex DNA (5′-[…] […]-3′, SEQ ID NO:15) was chemically synthesized. NanR was dialyzed extensively against Tris buffer (50 mM Tris-HCl, pH 7.0; 300 mM NaCl) and the DNA was diluted to 0.03 mM in the same buffer. Protein and DNA samples were degassed by vacuum aspiration for 20 minutes prior to loading and titration was carried out at 25° C. The NanR dimer in the syringe (0.48 mM) was titrated against the 0.03 mM DNA sample in the reaction cell. Analysis of the interaction between the NanR/ManNAc-6P complex and the DNA sample was performed using 0.48 mM of complex and 0.03 mM of DNA. The calorimetric assays were performed using a VP-ITC (MicroCal Inc., Northampton, Mass.). The stirring speed was 300 rpm and the thermal power was recorded every 10 seconds. Data were processed and plotted using the Origin program (version 7) supplied with the instrument.
as §2

PnanTp = assay: E. coli dual plasmid system (luciferase reporter fused to PnanTp); type: cell-based; settings: for repressive effect of NanR on activity of PnanTp: point mutations in DBD
Description: E. coli strains were co-transformed with a luciferase reporter plasmid (pBS0915) and one of the pNB-series of plasmids that express NanR. Cells were cultured overnight and then diluted into the appropriate fresh media (supplemented M9 in FIG. 3; LB in FIG. 4) containing arabinose (0.002%), and incubated at 37° C. until cells grew to early exponential phase. Relative luminescence unit (RLU) was calculated by dividing the luminescence by the A600, as described previously. For screening ligand-sensing residues, the BSE1201 strain (ΔaraBAD ΔnanE) was used as the host cell instead of DH5α to ensure that the arabinose was not used as a carbon source and that ManNAc-6P generated from Neu5Ac was accumulated in the cell.
To assess the importance of the interaction between ManNAc-6P and NanR to regulation of the nan genes, the residues involved in ligand-binding were mutated and the impact on NanR function was investigated using an E. coli dual plasmid system. Cells were cotransformed with plasmids containing a luciferase reporter gene fused to the NanR-binding nanT(PSL)AR promoter (PnanTp), and wild-type or mutant NanR, and then incubated in the presence of arabinose and the presence or absence of Neu5Ac.
The simplest helix-turn-helix (HTH)-containing DBD includes three core helices; the HTH domains can form tetra-helical bundle, winged helix, and ribbon-helix-helix type configurations. The DBD of NanR is composed of a six-helix bundle, which is not the archetypal conformation of HTH-containing domains; therefore, the recognition helix required for DNA-binding could not been determined. […] The importance of these residues to DNA-binding was examined using an E. coli dual plasmid system described in Example 2. The repressive effect of wild-type NanR on activity of PnanTp was abolished by the R57A, R57L, R60A, and R60L point mutations (FIG. 4c).

PnanE = assay: In vitro transcription assay; type: biochemical, Vibrio vulnificus; settings: 100 nM NanR protein, presence or absence of 1 mM ManNAc-6P
Description: In vitro transcription assays with wild-type or mutant NanR proteins were performed according to procedures described previously. RNA extraction, cDNA synthesis, and real time PCR amplification of the cDNA were performed as described previously.

CC(=O)N[C@@H]1C(O)O[C@H](COP(=O)(O)O)[C@@H](O)[C@@H]1O (some centres unmarked) [ManNAc-6P, N-acetylmannosamine 6-phosphate]
effect of ManNAc-6P on DNA migration in EMSA ([1]; addition of ManNAc-6P): retardation of DNA migration
effect of ManNAc-6P on DNaseI protection by NanR [2]: cleavage bands at the center of the NanR-binding site disappeared

B1: NanR dimer: V. vulnificus transcriptional repressor of the nan operon, SEQ ID NO. 1 (protein, listed as Vibrio vulnificus)
chain: MGSPKNLLVRLRSNMEPFSKKLRVVADYILENAHDVQFQTITDLARNTQTSEATVVRLCRDMGYKGYSDFRMALAVDLSQTESRQQNHIEGDICDVSAQSAVDSLQDTAKLIDRKSLARIVERVHQAEFIGCIGVGASSIVGRYLAYRLIRIGKKAIMFEDTHLAAMSASRSSQGDLWFAVSSSGSTKEVIHAAGLAYKRDIPVVSLTNINHSPLSSLSTEMLVAARPEGPLTGGAFASKVGALLLVDVLVNSLLESYPEYKDSVQETAEVVIPLMAN
modifications: homodimer
Kd [3]: 1.4 µM
luciferase activity (PnanTp) after addition of Neu5Ac (PnanTp; BSE1201 host, arabinose, presence or absence of Neu5Ac): increased following addition of Neu5Ac

B2: R60A: modified NanR protein, Arg60 substituted with alanine (protein)
chain: MGSPKNLLVRLRSNMEPFSKKLRVVADYILENAHDVQFQTITDLARNTQTSEATVVRLCADMGYKGYSDFRMALAVDLSQTESRQQNHIEGDICDVSAQSAVDSLQDTAKLIDRKSLARIVERVHQAEFIGCIGVGASSIVGRYLAYRLIRIGKKAIMFEDTHLAAMSASRSSQGDLWFAVSSSGSTKEVIHAAGLAYKRDIPVVSLTNINHSPLSSLSTEMLVAARPEGPLTGGAFASKVGALLLVDVLVNSLLESYPEYKDSVQETAEVVIPLMAN
repressive effect of NanR on activity of PnanTp (PnanTp): abolished
DNA binding in EMSA [1]: No DNA migration was detected
repression of PnanE transcription (PnanE): did not repress PnanE

B3: K199A (protein)
chain: MGSPKNLLVRLRSNMEPFSKKLRVVADYILENAHDVQFQTITDLARNTQTSEATVVRLCRDMGYKGYSDFRMALAVDLSQTESRQQNHIEGDICDVSAQSAVDSLQDTAKLIDRKSLARIVERVHQAEFIGCIGVGASSIVGRYLAYRLIRIGKKAIMFEDTHLAAMSASRSSQGDLWFAVSSSGSTKEVIHAAGLAYARDIPVVSLTNINHSPLSSLSTEMLVAARPEGPLTGGAFASKVGALLLVDVLVNSLLESYPEYKDSVQETAEVVIPLMAN
DNA binding in EMSA [1]: not as conspicuous as that of wild-type NanR

B4: K199L (protein)
chain: MGSPKNLLVRLRSNMEPFSKKLRVVADYILENAHDVQFQTITDLARNTQTSEATVVRLCRDMGYKGYSDFRMALAVDLSQTESRQQNHIEGDICDVSAQSAVDSLQDTAKLIDRKSLARIVERVHQAEFIGCIGVGASSIVGRYLAYRLIRIGKKAIMFEDTHLAAMSASRSSQGDLWFAVSSSGSTKEVIHAAGLAYLRDIPVVSLTNINHSPLSSLSTEMLVAARPEGPLTGGAFASKVGALLLVDVLVNSLLESYPEYKDSVQETAEVVIPLMAN
DNA binding in EMSA [1]: not as conspicuous as that of wild-type NanR

B5: R57A: modified NanR protein, Arg57 substituted with alanine (protein)
chain: MGSPKNLLVRLRSNMEPFSKKLRVVADYILENAHDVQFQTITDLARNTQTSEATVVALCRDMGYKGYSDFRMALAVDLSQTESRQQNHIEGDICDVSAQSAVDSLQDTAKLIDRKSLARIVERVHQAEFIGCIGVGASSIVGRYLAYRLIRIGKKAIMFEDTHLAAMSASRSSQGDLWFAVSSSGSTKEVIHAAGLAYKRDIPVVSLTNINHSPLSSLSTEMLVAARPEGPLTGGAFASKVGALLLVDVLVNSLLESYPEYKDSVQETAEVVIPLMAN
repressive effect of NanR on activity of PnanTp (PnanTp): abolished
DNA binding in EMSA [1]: No DNA migration was detected
repression of PnanE transcription (PnanE): did not repress PnanE

B6: NanR complexed with ManNAc-6P: complex formed by interaction between NanR protein and ManNAc-6P (protein, UniProt P0A8W0 1-263, looked up)
HTH-type transcriptional …: MGLMNAFDSQTEDSSPAIGRNLRSRPLARKKLSEMVEEELEQMIRRREFGEGEQLPSERELMAFFNVGRPSVREALAALKRKGLVQINNGERARVSRPSADTIIGELSGMAKDFLSHPGGIAHFEQLRLFFESSLVRYAAEHATDEQIDLLAKALEINSQSLDNNAAFIRSDVDFHRVLAEIPGNPIFMAIHVALLDWLIAARPTVTDQALHEHNNVSYQQHIAIVDAIRRHDPDEADRALQSHLNSVSATWHAFGQTTNKKK
modifications: complexed with ManNAc-6P
Kd [3]: 186 µM
reduction of interaction affinity for DNA versus NanR dimer ([3]; NanR complexed with ManNAc-6P): 130 fold
